T1: human GIP receptor (human, UniProt P48546 22-466)
T1 sequence (looked up): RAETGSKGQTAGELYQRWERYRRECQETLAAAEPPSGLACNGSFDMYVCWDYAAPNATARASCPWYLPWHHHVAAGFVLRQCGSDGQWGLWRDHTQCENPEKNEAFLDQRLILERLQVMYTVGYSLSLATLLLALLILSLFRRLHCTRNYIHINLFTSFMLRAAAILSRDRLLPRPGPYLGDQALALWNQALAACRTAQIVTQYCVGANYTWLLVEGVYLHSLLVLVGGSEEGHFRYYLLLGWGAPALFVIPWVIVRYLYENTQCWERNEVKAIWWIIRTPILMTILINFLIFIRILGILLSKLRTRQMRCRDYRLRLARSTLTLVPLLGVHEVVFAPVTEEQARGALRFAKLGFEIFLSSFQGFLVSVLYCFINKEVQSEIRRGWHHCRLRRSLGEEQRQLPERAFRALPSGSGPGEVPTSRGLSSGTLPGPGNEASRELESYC

T2: human GIP receptor (human) (UniProt P48546)
T2 sequence (looked up): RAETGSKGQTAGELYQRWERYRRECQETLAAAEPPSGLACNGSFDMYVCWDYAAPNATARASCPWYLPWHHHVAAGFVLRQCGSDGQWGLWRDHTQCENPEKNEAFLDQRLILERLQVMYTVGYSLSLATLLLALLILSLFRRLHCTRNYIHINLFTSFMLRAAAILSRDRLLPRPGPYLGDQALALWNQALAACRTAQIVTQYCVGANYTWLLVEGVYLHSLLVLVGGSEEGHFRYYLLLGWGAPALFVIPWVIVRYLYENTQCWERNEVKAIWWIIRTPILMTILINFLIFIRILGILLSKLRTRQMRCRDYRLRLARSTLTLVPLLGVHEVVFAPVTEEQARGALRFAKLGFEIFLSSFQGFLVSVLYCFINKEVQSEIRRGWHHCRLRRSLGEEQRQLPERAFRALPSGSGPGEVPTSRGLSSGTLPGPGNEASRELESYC


Legend:
Test in all cases: cell-based or functional assay
human GLP-1 receptor = human GLP-1 receptor (human, UniProt P43220 24-463)
human glucagon receptor = human glucagon receptor (human, UniProt P47871 26-477)
Sequence of human glucagon receptor (P47871 26-477): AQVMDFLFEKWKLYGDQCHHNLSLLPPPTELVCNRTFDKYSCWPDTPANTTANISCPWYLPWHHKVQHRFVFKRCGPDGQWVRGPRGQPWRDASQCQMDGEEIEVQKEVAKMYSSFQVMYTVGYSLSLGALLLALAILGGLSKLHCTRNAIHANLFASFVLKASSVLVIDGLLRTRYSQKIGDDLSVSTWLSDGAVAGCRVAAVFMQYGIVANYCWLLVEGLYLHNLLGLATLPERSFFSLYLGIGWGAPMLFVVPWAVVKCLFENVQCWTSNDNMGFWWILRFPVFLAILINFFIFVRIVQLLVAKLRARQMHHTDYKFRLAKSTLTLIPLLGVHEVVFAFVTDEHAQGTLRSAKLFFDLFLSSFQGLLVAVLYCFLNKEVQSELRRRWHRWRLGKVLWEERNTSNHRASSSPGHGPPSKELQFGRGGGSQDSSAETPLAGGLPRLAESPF

human GIP receptor = molecular target: T1, human GIP receptor
[1] = molecular target: T2, human GIP receptor (human)
hGLP-1R = hGLP-1R (Homo sapiens, UniProt P43220)
[2] = molecular target: human glucagon receptor (human) (UniProt P47871)

Binder	cAMP EC50 (1.0% HSA) (human GLP-1 receptor) [nM]	cAMP EC50 (1.0% HSA) (human glucagon receptor) [nM]	cAMP EC50 (1.0% HSA) (human GIP receptor) [nM]	cAMP Emax (1.0% HSA) (human GIP receptor) [%]	cAMP EC50 [1] [nM]	cAMP Emax [1] [%]	cAMP EC50 (hGLP-1R) [nM]	cAMP Emax (hGLP-1R) [%]	cAMP EC50 [2] [nM]	cAMP Emax (1.0% HSA) (human GLP-1 receptor) [%]
YXEGTXTSDXXIXLDXKAQXXFIXXLIKGGPSSGAPPPS (Y-Aib-EGT-αMeF(2F)-TSD-4Pal-Aib-I-αMeL-LD-Orn-K((2-[2-(2-Amino-ethoxy)-ethoxy]-acetyl)3-(γ-Glu)-CO-(CH2)10-CH3)AQ-Aib-Orn-FI-(D-Glu)-αMeY-LIK((2-[2-(2-Amino-ethoxy)-ethoxy]-acetyl)3-(γ-Glu)-CO-(CH2)10-CH3)GGPSSGAPPPS-NH2) [Example 434]	1.73	> 9950	0.0994	97.5	0.00704	98.3	0.0837	104	> 9950	
YXEGTXTSDXXIXLDXKAQXEFIXXLIEGGPSSGAPPPSK (Y-Aib-EGT-αMeF(2F)-TSD-4Pal-Aib-I-αMeL-LD-Orn-K((2-[2-(2-Amino-ethoxy)-ethoxy]-acetyl)3-(γ-Glu)-CO-(CH2)10-CH3)AQ-Aib-EFI-(D-Glu)-αMeY-LIEGGPSSGAPPPSK((2-[2-(2-Amino-ethoxy)-ethoxy]-acetyl)3-(γ-Glu)-CO-(CH2)10-CH3)-NH2) [Example 424]	3.07	> 9950	0.159		0.00502	101	0.0427	102	> 9950	
YXEGTXTSDXXIXLDXQAQXKFIXXLIEGGPSSGAPPPSK (Y-Aib-EGT-αMeF(2F)-TSD-4Pal-Aib-I-αMeL-LD-Orn-QAQ-Aib-K((2-[2-(2-Amino-ethoxy)-ethoxy]-acetyl)2-(γ-Glu)-CO-(CH2)12-CO2H)FI-(D-Glu)-αMeY-LIEGGPSSGAPPPSK((2-[2-(2-Amino-ethoxy)-ethoxy]-acetyl)2-(γ-Glu)-CO-(CH2)12-CO2H)-NH2) [Example 489]	13.5	> 9950	0.578	79.4	0.0131	103	0.257	112	> 10100	98.7
YXEGTXTSDXXIXLDXKAQXEXIXXLIEGGPSSGAPPPSK (Y-Aib-EGT-αMeF(2F)-TSD-4Pal-Aib-I-αMeL-LD-Orn-K((2-[2-(2-Amino-ethoxy)-ethoxy]-acetyl)3-(Y-Glu)-CO-(CH2)10-CH3)AQ-Aib-E-αMeF-I-(D-Glu)-αMeY-LIEGGPSSGAPPPSK((2-[2-(2-Amino-ethoxy)-ethoxy]-acetyl)3-(γ-Glu)-CO-(CH2)10-CH3)-NH2) [Example 439]	9.25	> 9950	0.396	91.7	0.00799		0.11	95.7	> 9950	97
YXEGTXTSDXXIXLDXKAQXXFIXXLIEGGPSSGAPPPSK (Y-Aib-EGT-αMeF(2F)-TSD-4Pal-Aib-I-αMeL-LD-Orn-K((2-[2-(2-Amino-ethoxy)-ethoxy]-acetyl)3-(γ Glu)-CO-(CH2)10CH3)AQ-Aib-Orn-FI-(D-Glu)-αMeY-LIEGGPSSGAPPPSK((2-[2-(2-Amino-ethoxy)-ethoxy]-acetyl)3-(γ-Glu)-CO-(CH2)10-CH3)-NH2) [Example 435]	1.63	> 9950	0.0873	98.7	0.00517	104	0.0527	111	> 9950	97.8
YXEGTXTSDXXIXLDXKAQXEFIXXLIEGGPSSGAPPPSK (Y-Aib-EGT-αMeF(2F)-TSD-4Pal-Aib-I-αMeL-LD-Orn-K((2-[2-(2-Amino-ethoxy)-ethoxy]-acetyl)-(γ-Glu)-CO-(CH2)10-CH3)AQ-Aib-EFI-(D-Glu)-αMeY-LIEGGPSSGAPPPSK((2-[2-(2-Amino-ethoxy)-ethoxy]-acetyl)-(γ-Glu)-CO-(CH2)10-CH3)-NH2) [Example 428]	10.2	> 9950	0.748		0.00797	95.5	0.102	106	> 9950	
YXEGTXTSDXXIXLDXKAQXEXIXXLIEGGPSSGAPPPSK (not fully specified; Y-Aib-EGT-αMeF(2F)-TSD-4Pal-Aib-I-αMeL-LD-Orn-K((2-[2-(2-Amino-ethoxy)-ethoxy]-acetyl)2-(γ Glu)-CO-(CH2)10C3)AQ-Aib-E-αMeF-I-(D-Glu)-αMeY-LIEGGPSSGAPPPSK((2-[2-(2-Amino-ethoxy)-ethoxy]-acetyl)2-(γ-Glu)-CO-(CH2)10-CH3)-NH2) [Example 431]	17.5	> 9950	0.645	98	0.0097	104	0.134	99.2	> 9950	91.6

From patent publication US20230265151A1, “GIP/GLP1 CO-AGONIST COMPOUNDS” (priority 2020, published 2023)
